Assay results: patent US10065989B2, “Molecular sleds and uses thereof” (The Broad Institute, Inc., priority 2012, dated 2018)
“And” between values parts separate entries of the source, which are not always exact repeats. Identical values can stand only once. “Also recorded” adds a separate entry of the source. Like-named read-outs stand apart in the source and are kept apart here.

Assays:
[1] = tested on: lambda DNA; assay: Single-molecule DNA sliding assay on flow-stretched DNA (TIRF microscopy); set-up: species or system bacteriophage lambda; one-dimensional diffusion constant: unit not given here; conditions: for One-Dimensional Diffusion Constant (mean D1 ± SEM): lambda DNA, low salt 2-6 mM NaCl
Source text: To determine whether AVP-pVIc complexes slide on DNA, Applicants used single-molecule fluorescence microscopy (FIG. 10C) with flow-stretched DNA, (FIG. 10D,E) (Kabata, H. et al. Visualization of single molecules of RNA polymerase sliding along DNA. Science 262, 1561-3 (1993); Harada, Y. et al. Single-molecule imaging of RNA polymerase-DNA interactions in real time. Biophys. J. 76, 709-715 (1999) and Blainey, P. C., van Oijen, A. M., Banerjee, A., Verdine, G. L. & Xie, X. S. A base-excision DNA-repair protein finds intrahelical lesion bases by fast sliding in contact with DNA. Proc Natl Acad Sci USA 103, 5752-7 (2006)). […] Biochemistry 40, 13237-13245 (2001)), and furthermore to diffuse rapidly over tens of thousands of base pairs before dissociating from the DNA. For example, the molecule whose motion is shown in the raw image data in FIG. 12A traveled more than 20,000 base pairs during a 0.9 sec binding event. Despite the optical resolution limit imposed by diffraction, the centroid position of each signal in each frame was determined with 11 nm spatial precision at 3.5 ms time resolution (Gelles, J., Schnapp, B. J. & Sheetz, M. P. Tracking kinesin-driven movements with nanometer-scale precision. Nature 331, 450-3 (1988) and Thompson, R. E., Larson, D. R. & Webb, W. W. Precise nanometer localization analysis for individual fluorescent probes. Biophys J 82, 2775-83 (2002)), FIG. 12B.
Flow cells containing bacteriophage lambda DNA immobilized at one end were constructed as described previously (Blainey, P. C., van Oijen, A. M., Banerjee, A., Verdine, G. L. & Xie, X. S. A base-excision DNA-repair protein finds intrahelical lesion bases by fast sliding in contact with DNA. Proc Natl Acad Sci USA 103, 5752-7 (2006)). Labeled samples of AVP-pVIc complexes were infused at concentrations of 1-2 nM at rates of 20-50 mL/hour. Flow rates were chosen to drive the longitudinal DNA fluctuation faster than the imaging frame rate (Blainey, P. C., van Oijen, A. M., Banerjee, A., Verdine, G. L. & Xie, X. S. A base-excision DNA-repair protein finds intrahelical lesion bases by fast sliding in contact with DNA. Proc Natl Acad Sci USA 103, 5752-7 (2006)). The assay buffers consisted of 10 mM MES (pH 6.5), 2-25 mM NaCl, 50 μM EDTA, 20 mM ethanol, 5 percent glycerol, and, where indicated in the text, reducing agent (DTT and mercaptoethanol gave equivalent results). “Low salt” measurements were conducted with 2-6 mM NaCl; “high salt” measurements were conducted with 20-25 mM NaCl.
Due to the speed and duration of sliding by AVP-pVIc complexes, these events were readily identifiable manually. All AVP-pVIc complex DNA-binding events noted were included in the analyses. Once events had been identified, signals were tracked using Gaussian centroid determination in the Matlab environment. Molecular trajectories were analyzed in Matlab by methods similar to those previously published (Blainey, P. C., van Oijen, A. M., Banerjee, A., Verdine, G. L. & Xie, X. S. A base-excision DNA-repair protein finds intrahelical lesion bases by fast sliding in contact with DNA. Proc Natl Acad Sci USA 103, 5752-7 (2006)).
A question is does pVIc by itself slide on DNA. To address this possibility, Applicants performed a sliding assay (Blainey et al., 2012, Activated Adenovirus Proteinase Slides Along Viral DNA Via One-Dimensional Diffusion to Locate and Process its Substrate and Blainey et al., 2009, Nonspecifically bound proteins spin while diffusing along DNA. Nat Struct Mol Biol 16, 1224-1229 and Blainey et al., 2006, A base-excision DNA-repair protein finds intrahelical lesion bases by fast sliding in contact with DNA. Proc Natl Acad Sci USA 103, 5752-5757) using pVIc labeled with Cy3B at Cys10′. […] The sliding assay, based upon total internal reflection fluorescence microscopy, used phage λ DNA molecules (48,502 base pairs) attached at one end to a glass cover slip surface by a biotin-streptavidin linkage. The area of the cover slip with DNA was placed within a flow cell. […]

[2] = tested on: virion precursor proteins in heat-disrupted Ad2 ts-1 virions; assay: Processing of virion precursor proteins in heat-disrupted ts-1 virus; format: biochemical
[3] = target: dsDNA; conditions: 12-mer dsDNA, pH 7; McGrath et al. 2001; read-out: KD(app.); cited from earlier work
[4] = target: T1, AVP (Human adenovirus C serotype 2, UniProt P03252); conditions: cited from earlier work
[5] = target: dsDNA; format: binding
[6] = Detergent requirement for solubility, dynamic light scattering; format: physicochemical
Source text: Briefly, the gene for pVI and an expressible gene of VI were synthesized by PCR and inserted into expression vectors. The vectors for pVI and VI were used to transform Escherichia coli BL21 (DE3) Codon Plus cells. Recombinant proteins were expressed in autoinduction media (Studier, F. W. (2005) Protein Expr. Purif. 41, 207-234). Purification of pVI and VI was accomplished by cation-exchange and size exclusion chromatography. The proteins were about 99% pure. pVI and VI required a detergent to keep them in solution. Below a concentration of DDM of 0.0125%, the proteins were insoluble, as determined by dynamic light scattering.

[7] = target: T1, AVP
Experimental: Assays contained 3.38 μM pVI, 6.54 μM AVP and either 3.38 μM 36 bp dsDNA or no DNA. After the indicated time intervals, aliquots were removed and assayed for enzymatic activity. 100% activity is the enzyme activity of 3.38 μM AVP-pVIc complexes bound to DNA. (∘) plus DNA, (∇) minus DNA. […] After 30 min. at 21° C., the amount of AVP-pVIc formed was assayed. (C) SDS-PAGE (15% polyacrylamide gel) analysis of the reactions in (B) except that the concentrations of pVI, AVP and DNA were 26-fold higher. The DNA concentration in the reactions fractionated on the gel increased from left to right. In B and C, parentheses including the same number indicates the ratio of protein to DNA in B and C is the same.
Another question is if DNA is required for the activation of AVP by pVI. Applicants repeated the experiment but in the presence of dsDNA.
To see if both enzyme (AVP) and substrate (pVI) must be on the same molecule of DNA for activation to occur or whether they can interact when bound to different DNA molecules, Applicants incubated increasing concentrations of DNA with a mixture of AVP and pVI, each at a concentration such that both should bind to DNA at any DNA concentration. And then Applicants assayed for enzyme activation (FIG. 6B).

[8] = target: T2, Ad2 hexon (human adenovirus serotype 2 (Ad2), UniProt P03277 2-968); assay: summary sentence of Example 1; fluorescence titration of Cy3B-pVI with hexon
T2 construct: also called hexon trimer; major capsid protein hexon

[9] = target: T2, Ad2 hexon; assay: fluorescence anisotropy under tight binding conditions; 20 nM Cy3B-pVI titrated with hexon
[10] = target: T2, Ad2 hexon; assay: fluorescence quenching; 1 nM Cy3B-pVI titrated with hexon (monomer concentrations), 20 mM Hepes pH 7, 150 mM NaCl

T2 sequence (P03277 2-968 limits assumed): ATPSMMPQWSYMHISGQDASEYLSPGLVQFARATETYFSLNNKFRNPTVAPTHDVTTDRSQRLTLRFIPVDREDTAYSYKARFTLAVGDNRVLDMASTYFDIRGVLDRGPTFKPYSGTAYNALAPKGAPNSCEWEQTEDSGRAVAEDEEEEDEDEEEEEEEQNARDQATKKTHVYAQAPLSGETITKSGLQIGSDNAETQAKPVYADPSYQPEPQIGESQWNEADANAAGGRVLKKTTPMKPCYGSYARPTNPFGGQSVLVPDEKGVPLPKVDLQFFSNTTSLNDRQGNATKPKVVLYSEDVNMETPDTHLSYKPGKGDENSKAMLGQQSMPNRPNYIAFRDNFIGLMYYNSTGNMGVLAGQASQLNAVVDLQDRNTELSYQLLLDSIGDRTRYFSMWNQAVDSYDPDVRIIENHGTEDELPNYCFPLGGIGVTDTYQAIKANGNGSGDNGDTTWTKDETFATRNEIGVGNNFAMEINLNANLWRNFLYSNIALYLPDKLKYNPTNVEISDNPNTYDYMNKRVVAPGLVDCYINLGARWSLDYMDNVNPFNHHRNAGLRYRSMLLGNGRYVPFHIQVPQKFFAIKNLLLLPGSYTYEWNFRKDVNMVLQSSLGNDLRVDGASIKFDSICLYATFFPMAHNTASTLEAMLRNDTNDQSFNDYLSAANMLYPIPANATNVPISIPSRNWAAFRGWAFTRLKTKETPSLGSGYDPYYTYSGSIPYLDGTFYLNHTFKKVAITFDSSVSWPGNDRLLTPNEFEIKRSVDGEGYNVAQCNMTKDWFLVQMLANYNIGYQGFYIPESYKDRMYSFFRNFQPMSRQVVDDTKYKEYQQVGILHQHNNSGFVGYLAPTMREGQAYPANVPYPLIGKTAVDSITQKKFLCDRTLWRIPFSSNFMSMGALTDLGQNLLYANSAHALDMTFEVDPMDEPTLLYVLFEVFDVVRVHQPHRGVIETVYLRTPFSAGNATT
T1 sequence (P03252 whole entry): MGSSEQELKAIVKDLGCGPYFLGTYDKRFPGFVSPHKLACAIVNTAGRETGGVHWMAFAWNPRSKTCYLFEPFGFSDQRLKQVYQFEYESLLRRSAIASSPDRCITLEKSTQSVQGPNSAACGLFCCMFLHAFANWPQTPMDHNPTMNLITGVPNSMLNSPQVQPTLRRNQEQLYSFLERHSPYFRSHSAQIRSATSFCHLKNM

For “AVP: adenovirus proteinase, a 23 kDa cysteine proteinase”, the “sliding along DNA (in words)” value [1] was “does not slide effectively along DNA”, the “processing of precursor proteins after DNase treatment” value ([2]; heat disrupted ts-1 virus incubated with DNase, 2 or 24 hours) was “no processing of pVI or the other precursor proteins was observed” and the “time within which all pVI was processed” value ([2]; heat disrupted ts-1 virus, DNA present) was at most 24 hours. The Kd [3] was 63 nM and 63.1 nM, the “increase of relative kcat/Km of AVP” value ([4]; in the presence of DNA) was 110 fold and the “increase of relative kcat/Km of AVP” value ([4]; in the presence of pVIc) was 1130 fold.

In the case of “SFRRCGLRQVK [Random peptide, reference compound]”, the Kd ([5]; 12-mer dsDNA, pH 8, peptide labeled at Cys5′ with Cy3B, read-out: Kd(app.)) is reported as 646 ± 75 nM, the “sliding along DNA (in words)” value [1] is reported as “No Diffusion” and the “sliding along DNA (in words)” value ([1]; listed as SFRRCGLRQVK) is reported as “No one-dimensional diffusion of the peptide was observed; also recorded: does not slide along the DNA”. For the same molecule, the “cofactor activity in stimulating AVP” value ([4]; up to a concentration of 60 M, Brown and Mangel 2004) was “did not act like a cofactor in stimulating AVP”.

In the case of “SGPSIVHRKCF [11-Actin-C, last 11 amino acids of β-actin]”, the “One-Dimensional Diffusion Constant (mean D1 ± SEM)” value [1] is reported as 6.40 (bp)^2/s × 10^−6.

In the case of “SIVHRKCF [8-Actin-C, 8-amino acid peptide from the C-terminus of β-actin]”, the Kd ([5]; 12-mer dsDNA, pH 7, Cy3B label on peptide, read-out: Kd(app.)) is reported as 5 ± 0.78 nM and the “One-Dimensional Diffusion Constant (mean D1 ± SEM)” value [1] is reported as 5.45 (bp)^2/s × 10^−6.

B1: precursor to adenovirus protein VI, pVI (other)
chain: MEDINFASLAPRHGSRPFMGNWQDIGTSNMSGGAFSWGSLWSGIKNFGSTIKNYGSKAWNSSTGQMLRDKLKEQNFQQKVVDGLASGISGVVDLANQAVQNKINSKLDPRPPVEEPPPAVETVSPEGRGEKRPRPDREETLVTQIDEPPSYEEALKQGLPTTRPIAPMATGVLGQHTPVTLDLPPPADTQQKPVLPGPSAVVVTRPSRASLRRAASGPRSMRPVASGNWQSTLNSIVGLGVQSLKRRRCF
notes: range 1-250; also called Cy3B-pVI; adenovirus precursor protein pVI
B1 gave a Kd ([5]; 12-mer dsDNA, 0.02 M NaCl, read-out: KD) of 55 nM, a Kd ([5]; 12-mer dsDNA, 0.03 M NaCl, read-out: KD) of 155 nM and a Kd ([5]; 12-mer dsDNA, 0.04 M NaCl, read-out: KD) of 328 nM. The Kd ([5]; 12-mer dsDNA, 0.05 M NaCl, read-out: KD) was 449 nM, the Kd ([5]; 12-mer dsDNA, 0.06 M NaCl, read-out: KD) was 1040 nM and the Kd ([5]; 33-mer dsDNA, 1 mM MgCl2, buffer B pH 8, 21° C., read-out: KD(app.)) was 35 nM. The one-dimensional diffusion constant [1] was 1.45×10^6, the “one-dimensional diffusion constant (mean)” value ([1]; flow-stretched lambda DNA, low salt) was 1.45±0.13×10^6 (bp)^2/s and 1.45×10^6 (bp)^2/s and the “minimum DDM concentration required to remain in solution” value [6] was 0.0125%. For the same molecule, the “rate of AVP activation relative to rate at peak DNA concentration (50 nM)” value ([7]; 77 nM pVI, 130 nM AVP, 320 nM 36-mer dsDNA) was 12%, the “pVI cleaved and used to form active AVP-pVIc complexes” value ([7]; 3.38 μM pVI, 6.54 μM AVP, 3.38 μM 36 bp dsDNA, by one hour) was 100% and the “enzymatic activity after mixing AVP with pVI” value ([7]; no DNA) was “no enzymatic activity was detected”. The “time by which all pVI had disappeared (SDS-PAGE)” value ([7]; with AVP and 36 bp dsDNA) was at most 10 minutes, the Kd [8] was 1.9 nM and 1.85 nM and the “stoichiometry of binding of pVI to hexon monomer” value [9] was 1 pVI per hexon monomer. It also gave a Kd [10] of 1.8 nM.
